Here are results for two molecules from patent publication US20030108554A1 (published 2003).

In data set [1] the target is T1, pol κ (UniProt Q9UBT6 1-870).
T1 construct: Tested in yeast two-hybrid (GAL4 domain fusion); also called primary protein product of the POLK
T1 sequence (looked up): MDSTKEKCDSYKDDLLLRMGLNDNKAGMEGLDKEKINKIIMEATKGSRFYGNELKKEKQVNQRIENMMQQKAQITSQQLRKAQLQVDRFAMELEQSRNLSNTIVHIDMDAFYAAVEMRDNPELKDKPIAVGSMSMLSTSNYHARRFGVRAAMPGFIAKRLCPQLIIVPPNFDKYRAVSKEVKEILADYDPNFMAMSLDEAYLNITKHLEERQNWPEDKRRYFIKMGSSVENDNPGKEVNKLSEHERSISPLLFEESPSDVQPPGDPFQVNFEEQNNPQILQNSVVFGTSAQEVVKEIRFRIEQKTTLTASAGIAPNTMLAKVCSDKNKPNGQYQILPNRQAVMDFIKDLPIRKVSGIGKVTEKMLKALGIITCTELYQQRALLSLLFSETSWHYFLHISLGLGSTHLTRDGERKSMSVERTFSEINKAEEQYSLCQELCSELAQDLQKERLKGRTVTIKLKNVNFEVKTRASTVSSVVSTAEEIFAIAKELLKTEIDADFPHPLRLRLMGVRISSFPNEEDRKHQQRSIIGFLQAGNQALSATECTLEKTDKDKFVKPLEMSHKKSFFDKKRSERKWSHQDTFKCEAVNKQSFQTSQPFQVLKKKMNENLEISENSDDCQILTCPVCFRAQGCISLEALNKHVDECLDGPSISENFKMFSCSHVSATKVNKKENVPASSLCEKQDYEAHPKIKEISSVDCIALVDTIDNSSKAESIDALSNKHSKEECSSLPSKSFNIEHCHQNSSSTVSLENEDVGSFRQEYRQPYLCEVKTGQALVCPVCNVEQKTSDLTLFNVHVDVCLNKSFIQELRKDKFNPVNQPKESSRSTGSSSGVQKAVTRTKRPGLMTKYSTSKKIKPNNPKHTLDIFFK
Nature of the data set: yeast two-hybrid.

Data set [2] deals with the molecule itself. Kind of data set: yeast two-hybrid with I-20 deletion mutants. As to the method: The production of additional I-20 deletion mutants and their use in specific two hybrid studies permitted the identification of two specific regions of I-20 that are essential for GPBP interaction as well as the identification of other residues directly involved but not essential for the interaction (FIG. 4).
Deletion mutants were obtained using specific primers and PCR, followed by cloning of the resulting cDNAs in the pGBT9 and pGAD424 vectors. The assays were performed in SFY526 or HF7c Saccharomyces cerevisiae strains, with pGBT9 as GAL4 binding domain vector and pGAD424 as GAL4 activation domain vector, by the lift colony assay procedure. Briefly, the yeast cells were co-transformed with constructs of both binding domain and activation domain vectors, and the co-transformants were selected in medium deficient in both tryptophan and leucine. After five days of incubation at 30° C. the colonies were tested for the expression of β-galactosidase with X-Gal substrate (0.75 mg/ml). […] When the assays were performed with the HF7c strain, the interactions were assessed by the lift colony assay procedure and by growth in medium deficient in histidine, tryptophan and leucine.

Data set [3] concerns the target T2, Goodpasture antigen binding protein (GPBP) (UniProt Q9Y5P4 1-624).
T2 construct: Protein kinase; Fusion parts are not written as pieces
T2 sequence (looked up): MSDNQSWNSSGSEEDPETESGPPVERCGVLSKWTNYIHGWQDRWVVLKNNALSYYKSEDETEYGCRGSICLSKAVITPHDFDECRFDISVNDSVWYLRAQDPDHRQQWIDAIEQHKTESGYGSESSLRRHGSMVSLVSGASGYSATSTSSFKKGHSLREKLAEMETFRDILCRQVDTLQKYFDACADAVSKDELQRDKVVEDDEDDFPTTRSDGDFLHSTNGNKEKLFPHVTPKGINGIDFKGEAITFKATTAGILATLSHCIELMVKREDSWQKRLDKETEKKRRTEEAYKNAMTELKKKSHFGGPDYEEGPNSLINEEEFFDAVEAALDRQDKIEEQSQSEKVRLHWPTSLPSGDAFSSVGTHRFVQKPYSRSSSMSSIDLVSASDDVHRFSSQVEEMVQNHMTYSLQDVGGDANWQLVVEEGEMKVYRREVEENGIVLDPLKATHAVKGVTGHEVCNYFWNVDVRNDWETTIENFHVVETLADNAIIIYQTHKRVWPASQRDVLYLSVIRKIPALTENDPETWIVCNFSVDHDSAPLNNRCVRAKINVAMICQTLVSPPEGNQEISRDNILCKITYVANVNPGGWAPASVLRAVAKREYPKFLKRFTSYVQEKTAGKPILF
Nature of the data set: yeast two-hybrid, β-galactosidase colony lift. As to the method:
Deletion mutants were obtained using specific primers and PCR, followed by cloning of the resulting cDNAs in the pGBT9 and pGAD424 vectors. The assays were performed in SFY526 or HF7c Saccharomyces cerevisiae strains, with pGBT9 as GAL4 binding domain vector and pGAD424 as GAL4 activation domain vector, by the lift colony assay procedure. Briefly, the yeast cells were co-transformed with constructs of both binding domain and activation domain vectors, and the co-transformants were selected in medium deficient in both tryptophan and leucine. After five days of incubation at 30° C. the colonies were tested for the expression of β-galactosidase with X-Gal substrate (0.75 mg/ml). […] When the assays were performed with the HF7c strain, the interactions were assessed by the lift colony assay procedure and by growth in medium deficient in histidine, tryptophan and leucine. For yeast three-hybrid system, we used the pBRIDGE vector, which allows the conditional expression of a third protein apart from the usual GAL4 binding and activation domain-fusion proteins of the two-hybrid system. In this case, the expression of GPBP or I-20 or GIP90 was driven by Met25 promoter, active in absence of methionine. In these experiments, the transformed SFY526 cells were plated in medium deficient in tryptophan, leucine and methionine, and subjected to the colony lift assay after five days at 30° C. […]

Data set [4] concerns the target T2, Goodpasture antigen binding protein …. Kind of data set: yeast two-hybrid.

B1: I-20 (other)
chain: RDEVIGILKAEKMDLALLEAQYGFVTPKKVLEALQRDAFQAKSTPWQEDIYEKPMNELDKVVEKHKESYRRILGQLLVAEKSRRQTILELEEEKRKHKEYMEKSDEFICLLEQECERLKKLIDQEIKSQEEKEQEKEKRVTTLKEELTKLKSFALMVVDEQQRLTAQLTLQRQKIQELTTNAKETHTKLALAEARVQEEEQKATRLEKELQTQTTKFHQDQDTIMAKLTNEDSQNRQLQQKLAALSRQIDELEETNRSLRKAEEE
notes: Tested as GAL4 domain fusion in yeast two-hybrid and three-hybrid; fusion parts are not written as pieces; also called 265 residue polypeptide I-20
As to B1, the binding result in data set [1] is “no binding”; in data set [2], “binds”; in data set [3] it was “binds”.

B2: GIP90 with deletion of the N terminal 240-residues (other)
chain: MVVDEQQRLTAQLTLQRQKIQELTTNAKETHTKLALAEARVQEEEQKATRLEKELQTQTTKFHQDQDTIMAKLTNEDSQNRQLQQKLAALSRQIDELEETNRSLRKAEEELQDIKEKISKGEYGNAGIMAEVEELRKRVLDMEGKDEELIKMEEQCRDLNKRLERETLQSKDFKLEVEKLSKRIMALEKLEDAFNKSKQECYSLKCNLEKERMTTKQLSQELESLKVRIKELEAIESRLEKTEFTLKEDLTKLKTLTVMFVDERKTMSEKLKKTEDKLQAASSQLQVEQNKVTTVTEKLIEETKRALKSKTDVEEKMYSVTKERDDLKNKLKAEEEKGNDLLSRVNMLKNRLQSLEAIEKDFLKNKLNQDSGKSTTALHQENNKIKELSQEVERLKLKLKDMKAIEDDLMKTEDEYETLERRYANERDKAQFLSKELEHVKMELAKYKLAEKTETSHEQWLFKRLQEEEAKSGHLSREVDALKEKIHEYMATEDLICHLQGDHSVLQKKTKSTRKQEQRFRKRD
notes: Deletion mutant in yeast two-hybrid (GAL4 domain fusion)
For B2, the binding result in data set [4] is reported as “no binding”.
